# Laboratory results reported in publication PMC8191757, “m6A RNA methylation of major satellite repeat transcripts facilitates chromatin association and RNA:DNA hybrid formation in mouse heterochromatin”.
# T1: NLS-HBD(H1)-eGFP (mouse, UniProt O70338 27-76)
# T1 chain: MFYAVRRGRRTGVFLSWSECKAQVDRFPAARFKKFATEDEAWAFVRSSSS
# B1: MSR SR2 RNA:DNA hybrid, m6A (DNA:RNA)
# RNA: UUUUCCACCUUUUUCAGUUUUCCUCGCCAUAUUUC
# DNA: GAAATATGGCGAGGAAAACTGAAAAAGGTGGAAAA
# modifications: m6A at RNA positions 7, 16, 29, 31
# Biological target: T1, NLS-HBD(H1)-eGFP
# Experiment: EMSA; comparable to unmodified; EMSA: 20 nM hybrid, 125 nM-0.5 uM protein, 20 mM Tris-HCl pH 8.0, 150 mM NaCl, 5 mM MgCl2, 12.5% glycerol, 0.05% Triton X-100, 1 mM DTT, 1 h at 4 C
# Settings: protein: recombinant, tags: N-terminal NLS PKKKRKV, 6xHis-MBP cleaved by AcTEV, label: 5'-Cy5 on RNA, blunt
binder,measurement,value
B1,binding result,binds
